The values that follow come from patent US20190270815A1 (WUXI BIOLOGICS IRELAND, published 2019).

In assay [1] the target is T1, murine PD-1 (Sino biological) (murine, UniProt Q02242 25-167, limits assumed).
T1 sequence (looked up): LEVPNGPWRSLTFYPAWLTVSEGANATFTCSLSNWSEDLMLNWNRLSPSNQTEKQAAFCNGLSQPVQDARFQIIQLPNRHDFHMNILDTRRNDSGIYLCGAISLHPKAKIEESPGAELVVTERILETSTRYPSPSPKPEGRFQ
Briefly: ELISA on plate-coated murine PD-1. As to the method:
3.3.1 Cross-reactivity to cynomolgus PD-1 and murine PD-1: Cross-reactivity was measured by ELISA. Plates (Nunc) were coated with cynomolgus PD-1 (Sino Biological) and murine PD-1 (Sino biological) at 1 μg/ml overnight at 4° C. After blocking and washing, […] antibodies were added to the plates and incubated at room temperature for 1 h. The plates were then washed and subsequently incubated with secondary antibody goat anti rat IgG1 HRP (Bethyl) and goat anti rat IgG2b HRP (Bethyl) for 45 min. After washing, TMB substrate was added and the interaction was stopped by 2M HCl. The absorbance at 450 nm was read using a microplate reader (Molecular Device).
(In general: In an ELISA, binding on a coated surface is turned into a signal by an enzyme label.)

Assay [2] concerns the target T2, human PD-1 expressed on cells (human, UniProt Q15116 25-288).
T2 construct: whole, on cells; also called PD-1 expressing CHO cell; PD-1 transfected CHO-S cells
Briefly: FACS on CHO-S cells expressing human PD-1. As to the method: 3.1 Binding affinity of PD-1 antibodies to cell surface PD-1 molecules tested by flow cytometry (FACS): Antibody binding affinity to cell surface PD-1 was performed by FACS analysis. CHO-S cells expressing human PD-1 were transferred in to 96-well U-bottom plates (BD) at a density of 5×10⁵ cells/ml. Tested antibodies were 1:2 serially diluted in wash buffer (1×PBS/1% BSA) and incubated with cells at 4° C. for 1 h. The secondary antibody goat anti-human IgG Fc FITC (3.0 moles FITC per mole IgG, (Jackson Immunoresearch Lab) was added and incubated at 4° C. in the dark for 1 h. The cells were then washed once and resuspended in 1×PBS/1% BSA, and analyzed by flow cytometery (BD). Fluorescence intensity will be converted to bound molecules/cell based on the quantitative beads Quantum™ MESF Kits, Bangs Laboratories, Inc.). KD was calculated using Graphpad Prism5.

In assay [3] the target is T3, hPD-1 ECD-His point mutant K 135 (to alanine) (human, UniProt Q15116 25-170).
T3 construct: extracellular domain
T3 sequence (Q15116 other isoform, or with tags, fused parts or gaps mutant): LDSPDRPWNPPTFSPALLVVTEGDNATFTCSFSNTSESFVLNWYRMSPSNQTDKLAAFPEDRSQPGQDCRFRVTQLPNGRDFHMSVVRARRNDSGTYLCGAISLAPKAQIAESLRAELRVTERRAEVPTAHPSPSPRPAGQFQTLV
Nature of the assay: ELISA, antibody coated, His-tagged PD-1 mutant supernatant; fold change vs silent alanine substitutions. As to the method:
(§1) After interacting with the supernatant that contains quantified PD-1 mutant, HRP conjugated anti-His antibody (Rockland, Cat#200-303-382) was added as detection antibody. Absorbance was normalized according to the average of control mutants. After setting an additional cutoff to t4he binding fold change (<0.55), the final determined epitope residues were identified.

The target of assay [4] is T4, hPD-1 ECD-His point mutant A 50 (to glycine) (human, UniProt Q15116 25-170).
T4 construct: extracellular domain
T4 sequence (Q15116 other isoform, or with tags, fused parts or gaps mutant): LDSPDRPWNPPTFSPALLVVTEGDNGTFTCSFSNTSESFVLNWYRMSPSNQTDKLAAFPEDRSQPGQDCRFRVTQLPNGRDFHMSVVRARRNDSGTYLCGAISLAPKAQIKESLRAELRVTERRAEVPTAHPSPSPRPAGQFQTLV
The description is as above. As to the method: as §1

In assay [5] the target is T5, hPD-1 ECD-His point mutant K 131 (to alanine) (human, UniProt Q15116 25-170).
T5 construct: extracellular domain
T5 sequence (Q15116 other isoform, or with tags, fused parts or gaps mutant): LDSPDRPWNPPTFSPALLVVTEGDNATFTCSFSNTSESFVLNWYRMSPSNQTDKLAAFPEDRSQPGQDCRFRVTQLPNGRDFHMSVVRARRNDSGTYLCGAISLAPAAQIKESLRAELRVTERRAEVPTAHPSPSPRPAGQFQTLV
Described as above. Here is the method: as §1

Assay [6] has as its target T6, hPD-1 ECD-His point mutant S 137 (to alanine) (human, UniProt Q15116 25-170).
T6 construct: extracellular domain
The description is as above. As to the method:
as §1

Assay [7] addresses T7, hPD-1 ECD-His point mutant L 65 (to alanine) (human, UniProt Q15116 25-170).
T7 construct: extracellular domain
Described as above. As to the method: as §1

In assay [8] the target is T8, hPD-1 ECD-His point mutant V 144 (to alanine) (human, UniProt Q15116 25-170).
T8 construct: extracellular domain
T8 sequence (Q15116 other isoform, or with tags, fused parts or gaps mutant): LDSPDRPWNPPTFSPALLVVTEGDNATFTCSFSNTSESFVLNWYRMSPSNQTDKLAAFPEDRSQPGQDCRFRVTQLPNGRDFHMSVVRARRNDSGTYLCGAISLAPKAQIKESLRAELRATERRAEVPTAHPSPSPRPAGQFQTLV
Described as above. Here is the method:
as §1

Assay [9] addresses T9, hPD-1 ECD-His point mutant G 47 (to alanine) (human, UniProt Q15116 25-170).
T9 construct: extracellular domain
Described as above. As to the method: as §1

Assay [10] deals with T10, hPD-1 ECD-His point mutant P 39 (to alanine) (human, UniProt Q15116 25-170).
T10 construct: extracellular domain
T10 sequence (Q15116 other isoform, or with tags, fused parts or gaps mutant): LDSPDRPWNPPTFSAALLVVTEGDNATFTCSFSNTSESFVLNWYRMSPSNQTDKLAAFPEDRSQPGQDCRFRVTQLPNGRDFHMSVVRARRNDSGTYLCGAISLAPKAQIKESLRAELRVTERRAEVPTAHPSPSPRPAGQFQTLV
The assay is described as above. As to the method: as §1

The target of assay [11] is T11, hPD-1 ECD-His point mutant M 108 (to alanine) (human, UniProt Q15116 25-170).
T11 construct: extracellular domain
T11 sequence (Q15116 other isoform, or with tags, fused parts or gaps mutant): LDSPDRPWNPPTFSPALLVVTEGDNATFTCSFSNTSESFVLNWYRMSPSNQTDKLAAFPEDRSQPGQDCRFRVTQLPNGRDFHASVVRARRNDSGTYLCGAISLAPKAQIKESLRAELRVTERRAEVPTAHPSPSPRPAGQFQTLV
The assay is described as above. Here is the method:
as §1

In assay [12] the target is T12, hPD-1 ECD-His point mutant F 95 (to alanine) (human, UniProt Q15116 25-170).
T12 construct: extracellular domain
T12 sequence (Q15116 other isoform, or with tags, fused parts or gaps mutant): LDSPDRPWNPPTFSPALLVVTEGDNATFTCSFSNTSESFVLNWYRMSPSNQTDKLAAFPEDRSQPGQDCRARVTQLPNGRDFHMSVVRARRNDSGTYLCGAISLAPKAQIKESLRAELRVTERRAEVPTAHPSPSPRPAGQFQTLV
The assay is described as above. Here is the method: as §1

For assay [13], the target named is T13, hPD-1 ECD-His point mutant C 123 (to alanine) (human, UniProt Q15116 25-170).
T13 construct: extracellular domain
T13 sequence (Q15116 other isoform, or with tags, fused parts or gaps mutant): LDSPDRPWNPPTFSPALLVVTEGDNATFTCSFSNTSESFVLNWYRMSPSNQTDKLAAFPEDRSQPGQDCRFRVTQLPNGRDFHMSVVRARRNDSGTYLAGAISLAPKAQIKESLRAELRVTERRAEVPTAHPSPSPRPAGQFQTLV
The assay is described as above. As to the method:
as §1

Assay [14] concerns the target T14, hPD-1 ECD-His point mutant L 142 (to alanine) (human, UniProt Q15116 25-170).
T14 construct: extracellular domain
The description is as above. As to the method:
as §1

Assay [15] has as its target T15, hPD-1 ECD-His point mutant P 83 (to alanine) (human, UniProt Q15116 25-170).
T15 construct: extracellular domain
The assay is described as above. As to the method: as §1

The target in assay [16] is T16, hPD-1 ECD-His point mutant A 113 (to glycine) (human, UniProt Q15116 25-170).
T16 construct: extracellular domain
T16 sequence (Q15116 other isoform, or with tags, fused parts or gaps mutant): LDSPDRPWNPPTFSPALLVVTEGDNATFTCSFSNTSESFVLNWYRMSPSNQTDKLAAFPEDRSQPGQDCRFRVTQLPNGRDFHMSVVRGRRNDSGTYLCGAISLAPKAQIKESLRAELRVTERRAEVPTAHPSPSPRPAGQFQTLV
Described as above. Here is the method:
as §1

The target in assay [17] is T17, hPD-1 ECD-His point mutant V 64 (to alanine) (human, UniProt Q15116 25-170).
T17 construct: extracellular domain
T17 sequence (Q15116 other isoform, or with tags, fused parts or gaps mutant): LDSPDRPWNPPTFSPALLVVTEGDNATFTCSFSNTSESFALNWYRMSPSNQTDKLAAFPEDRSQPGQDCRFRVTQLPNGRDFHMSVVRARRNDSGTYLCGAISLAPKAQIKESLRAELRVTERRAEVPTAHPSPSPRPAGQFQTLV
The description is as above. As to the method: as §1

Assay [18] deals with T18, hPD-1 ECD-His point mutant A 129 (to glycine) (human, UniProt Q15116 25-170).
T18 construct: extracellular domain
T18 sequence (Q15116 other isoform, or with tags, fused parts or gaps mutant): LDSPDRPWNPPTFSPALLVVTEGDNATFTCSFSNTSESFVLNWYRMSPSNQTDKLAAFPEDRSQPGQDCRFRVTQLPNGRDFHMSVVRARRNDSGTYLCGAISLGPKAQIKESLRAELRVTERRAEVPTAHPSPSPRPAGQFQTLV
The description is as above. Here is the method:
as §1

As usually defined, the EC50 is the concentration that produces a half-maximal response. Low values mean higher potency in that assay, high ones lower potency in that assay.

T15 sequence (Q15116 other isoform, or with tags, fused parts or gaps mutant): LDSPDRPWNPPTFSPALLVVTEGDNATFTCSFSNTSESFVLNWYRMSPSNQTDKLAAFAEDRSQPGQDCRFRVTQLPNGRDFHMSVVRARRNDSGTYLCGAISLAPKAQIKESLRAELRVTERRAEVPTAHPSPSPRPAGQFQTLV
T7 sequence (Q15116 other isoform, or with tags, fused parts or gaps mutant): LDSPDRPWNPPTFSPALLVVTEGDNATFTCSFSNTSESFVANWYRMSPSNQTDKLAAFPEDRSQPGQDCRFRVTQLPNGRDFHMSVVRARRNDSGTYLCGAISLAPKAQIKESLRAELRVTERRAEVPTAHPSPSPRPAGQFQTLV
T2 sequence (Q15116 25-288): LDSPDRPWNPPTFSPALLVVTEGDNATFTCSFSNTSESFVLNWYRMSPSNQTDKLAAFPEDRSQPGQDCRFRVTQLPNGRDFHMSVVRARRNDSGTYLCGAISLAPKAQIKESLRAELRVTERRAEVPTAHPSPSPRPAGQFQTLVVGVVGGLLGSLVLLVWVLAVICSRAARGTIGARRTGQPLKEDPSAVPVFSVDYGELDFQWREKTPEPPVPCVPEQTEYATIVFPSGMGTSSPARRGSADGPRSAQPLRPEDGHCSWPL
T9 sequence (Q15116 other isoform, or with tags, fused parts or gaps mutant): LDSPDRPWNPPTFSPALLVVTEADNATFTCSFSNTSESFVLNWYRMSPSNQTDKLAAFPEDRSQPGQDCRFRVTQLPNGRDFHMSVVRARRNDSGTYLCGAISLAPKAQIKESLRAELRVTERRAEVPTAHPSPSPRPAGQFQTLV
T6 sequence (Q15116 other isoform, or with tags, fused parts or gaps mutant): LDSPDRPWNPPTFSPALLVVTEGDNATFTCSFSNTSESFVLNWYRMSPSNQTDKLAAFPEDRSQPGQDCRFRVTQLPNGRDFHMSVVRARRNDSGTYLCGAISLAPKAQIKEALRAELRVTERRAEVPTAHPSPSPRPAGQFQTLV
T14 sequence (Q15116 other isoform, or with tags, fused parts or gaps mutant): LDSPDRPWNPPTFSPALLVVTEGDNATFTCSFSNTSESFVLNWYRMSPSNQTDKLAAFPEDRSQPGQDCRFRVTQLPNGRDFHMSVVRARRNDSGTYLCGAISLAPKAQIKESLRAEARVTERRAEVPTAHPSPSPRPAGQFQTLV

B1: 1.103.11 hAb (antibody, V domains shown)
VH: QLQLQESGPGLVKPSETLTLTCTVSADSISSTTYYWVWIRQPPGKGLEWIGSISYSGSTYYNPSLKSRVTVSVDTSKNQFSLKLNSVAATDTALYYCARHLGYNGRYLPFDYWGQGTLVTVSS
VL: QSALTQPASVSGSPGQSITISCTGTSSDVGFYNYVSWYQQHPGKAPELMIYDVSNRPSGVSDRFSGSKSGNTASLTISGLQAEDEADYYCSSYTNISTWVFGGGTKLTVL
notes: fully human monoclonal antibody with a human constant region of IgG4 isotype
For B1, in assay [1], the binding result is “no binding (tested: 1 g/ml antibodies (so in the source))”. In assay [2], this molecule gave an EC50 of approximately 2 nM. For the same molecule, the fold change in assay [3] was found to be 0.62; in [4], 0.73; in [5], 0.43; in [6], 0.62; in assay [7], 0.75; in assay [8], 0.22. Further, the fold change in assay [9] was 0.77; in assay [10], 0.55; in [11], 0.56; in [12] it was 0.63; in assay [13], 0.46; in assay [14] it was 0.44. Also, the fold change in assay [15] is 0.3; in [16], 0.73; in assay [17], 0.32; in [18], 0.22.
